Results as given in PMC5902676 (Biochemical Journal, 2018).

Molecular target: T1, HybC (large subunit of E. coli Hydrogenase-2), processed form of 552 residues (E. coli, UniProt P0ACE0 1-552)
T1 sequence (looked up): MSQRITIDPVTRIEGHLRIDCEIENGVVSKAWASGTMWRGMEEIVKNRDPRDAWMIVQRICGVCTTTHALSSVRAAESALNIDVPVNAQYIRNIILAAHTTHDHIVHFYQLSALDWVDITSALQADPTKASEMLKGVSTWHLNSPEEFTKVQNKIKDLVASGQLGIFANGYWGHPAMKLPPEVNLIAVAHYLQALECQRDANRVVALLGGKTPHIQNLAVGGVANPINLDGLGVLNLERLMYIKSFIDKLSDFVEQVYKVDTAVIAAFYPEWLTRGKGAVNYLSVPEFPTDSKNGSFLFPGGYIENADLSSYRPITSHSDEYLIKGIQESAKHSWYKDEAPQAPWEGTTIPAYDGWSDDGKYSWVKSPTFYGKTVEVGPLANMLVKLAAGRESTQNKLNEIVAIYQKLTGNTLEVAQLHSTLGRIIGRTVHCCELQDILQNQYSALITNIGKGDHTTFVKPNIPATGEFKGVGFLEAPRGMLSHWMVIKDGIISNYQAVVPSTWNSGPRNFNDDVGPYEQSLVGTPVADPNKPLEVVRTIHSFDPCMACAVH
Experiment: crystal structure

B1: HybO ΔTat ΔTM with C-terminal His-tag (small subunit of E. coli Hydrogenase-2, encoded by plasmid pO^C) (domain or fragment, UniProt P69741 38-330, looked up)
chain: EMAESVTNPQRPPVIWIGAQECTGCTESLLRATHPTVENLVLETISLEYHEVLSAAFGHQVEENKHNALEKYKGQYVLVVDGSIPLKDNGIYCMVAGEPIVDHIRKAAEGAAAIIAIGSCSAWGGVAAAGVNPTGAVSLQEVLPGKTVINIPGCPPNPHNFLATVAHIITYGKPPKLDDKNRPTFAYGRLIHEHCERRPHFDAGRFAKEFGDEGHREGWCLYHLGCKGPETYGNCSTLQFCDVGGVWPVAIGHPCYGCNEEGIGFHKGIHQLANVENQTPRSQKPDVNAKEGG
B1: binds.
